The text below walks through data of publication PMC10397247.

For one assay, the target named is T1, 4H140-AA.
T1 chain: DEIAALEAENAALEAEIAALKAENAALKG
The assay is described as follows: two-hybrid library CCmax.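 Further: natural log of median RNA to DNA barcode read ratio; higher means stronger binding.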

In another assay the target is T2, 4H1802-AA.
T2 chain: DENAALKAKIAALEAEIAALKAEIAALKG
The assay is described as follows: two-hybrid library CCmax.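 Further: natural log of median RNA to DNA barcode read ratio; higher means stronger binding.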 Particulars: mean of both orientations.

A further assay deals with T3, 4H2600-AA.
T3 chain: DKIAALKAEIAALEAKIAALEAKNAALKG
The assay is described as follows: two-hybrid library CCmax.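 Further: natural log of median RNA to DNA barcode read ratio; higher means stronger binding.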 Conditions: mean of both orientations.

Another assay deals with T4, 4H2721-AA.
T4 chain: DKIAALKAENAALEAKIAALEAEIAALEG
As to the kind of experiment: two-hybrid library CCmax.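 Further: natural log of median RNA to DNA barcode read ratio; higher means stronger binding.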 Conditions: mean of both orientations.

Another assay deals with T5, 4H2750-AA.
T5 chain: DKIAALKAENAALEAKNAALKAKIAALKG
As to the kind of experiment: two-hybrid library CCmax. Particulars: mean of both orientations.

The target of the next assay is T6, 4H2898-AA.
T6 chain: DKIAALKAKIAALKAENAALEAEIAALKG
As to the kind of experiment: two-hybrid library CCmax. Conditions: mean of both orientations.

A further assay deals with T7, 4H3020-AA.
T7 chain: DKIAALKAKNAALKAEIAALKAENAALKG
The assay is described as follows: two-hybrid library CCmax. Conditions: mean of both orientations.

A further assay concerns the target T8, 4H3365-AA.
T8 chain: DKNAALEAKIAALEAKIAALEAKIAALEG
As to the kind of experiment: two-hybrid library CCmax. Conditions: mean of both orientations.

The target of a further assay is T9, 4H355-AA.
T9 chain: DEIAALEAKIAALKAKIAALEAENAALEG
As to the kind of experiment: two-hybrid library CCmax. Particulars: mean of both orientations.

The target of the next assay is T10, 4H3651-AA.
T10 chain: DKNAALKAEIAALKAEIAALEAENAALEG
The assay is described as follows: two-hybrid library CCmax. Conditions: mean of both orientations.

The target in a further assay is T11, 4H3705-AA.
T11 chain: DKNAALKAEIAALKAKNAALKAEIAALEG
As to the kind of experiment: two-hybrid library CCmax. Particulars: mean of both orientations.

For another assay, the target named is T12, 4H3782-AA.
T12 chain: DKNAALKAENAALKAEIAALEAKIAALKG
As to the kind of experiment: two-hybrid library CCmax. Particulars: mean of both orientations.

Another assay addresses T13, 4H465-AA.
T13 chain: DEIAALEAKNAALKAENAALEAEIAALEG
As to the kind of experiment: two-hybrid library CCmax. Particulars: mean of both orientations.

The next assay deals with T14, 4H486-AA.
T14 chain: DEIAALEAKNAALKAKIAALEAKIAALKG
The assay is described as follows: two-hybrid library CCmax. Particulars: mean of both orientations.

A further assay concerns the target T15, 4H535-AA.
T15 chain: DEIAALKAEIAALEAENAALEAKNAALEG
The assay is described as follows: two-hybrid library CCmax. Conditions: mean of both orientations.

A further assay addresses T16, 4H58-AA.
T16 chain: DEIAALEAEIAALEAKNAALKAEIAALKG
The assay is described as follows: two-hybrid library CCmax. Conditions: mean of both orientations.

Another assay concerns the target T17, 4H895-AA.
T17 chain: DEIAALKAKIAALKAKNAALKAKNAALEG
As to the kind of experiment: two-hybrid library CCmax. Particulars: mean of both orientations.

A further assay concerns the target T18, 4H_APH.
T18 chain: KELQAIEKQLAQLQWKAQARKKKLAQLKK
The assay is described as follows: two-hybrid library CCmax. Particulars: mean of both orientations.

The target in another assay is T19, 4H_BCR.
T19 chain: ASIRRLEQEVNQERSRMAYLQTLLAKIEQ
As to the kind of experiment: two-hybrid library CCmax. Particulars: mean of both orientations.

The target of a further assay is 4H_GCN4. The assay is described as follows: two-hybrid library CCmax.
A further assay addresses GCN2_T. As to the kind of experiment: two-hybrid library CCmax. Conditions: mean of both orientations.
Another assay has as its target T20, 4H2233-bA.
T20 chain: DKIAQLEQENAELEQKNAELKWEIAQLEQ
As to the kind of experiment: two-hybrid library CCNG1.

The next assay addresses T21, 4H2253-bA.
T21 chain: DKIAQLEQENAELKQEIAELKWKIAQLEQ
The assay is described as follows: two-hybrid library CCNG1.

The target in another assay is T22, 4H235-bA.
T22 chain: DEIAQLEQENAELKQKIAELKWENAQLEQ
As to the kind of experiment: two-hybrid library CCNG1.

A further assay concerns the target T23, 4H2444-bA.
T23 chain: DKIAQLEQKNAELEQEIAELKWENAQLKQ
The assay is described as follows: two-hybrid library CCNG1.

The target in a further assay is T24, 4H2518-bA.
T24 chain: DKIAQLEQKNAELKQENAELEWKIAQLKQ
As to the kind of experiment: two-hybrid library CCNG1.

In a further assay the target is T25, 4H2585-bA.
T25 chain: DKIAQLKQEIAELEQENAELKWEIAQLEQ
As to the kind of experiment: two-hybrid library CCNG1.

For another assay, the target named is T26, 4H264-bA.
T26 chain: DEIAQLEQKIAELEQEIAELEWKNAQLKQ
The assay is described as follows: two-hybrid library CCNG1.

A further assay addresses T27, 4H2760-bA.
T27 chain: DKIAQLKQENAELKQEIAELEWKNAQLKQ
The assay is described as follows: two-hybrid library CCNG1.

The target of another assay is T28, 4H2859-bA.
T28 chain: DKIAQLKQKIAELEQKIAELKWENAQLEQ
The assay is described as follows: two-hybrid library CCNG1.

The next assay concerns the target T29, 4H2931-bA.
T29 chain: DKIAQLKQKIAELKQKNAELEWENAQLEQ
The assay is described as follows: two-hybrid library CCNG1.

In another assay the target is T30, 4H3041-bA.
T30 chain: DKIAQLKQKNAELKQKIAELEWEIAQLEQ
The assay is described as follows: two-hybrid library CCNG1.

A further assay addresses T31, 4H3297-bA.
T31 chain: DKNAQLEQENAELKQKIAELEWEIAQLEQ
As to the kind of experiment: two-hybrid library CCNG1.

Another assay deals with T32, 4H3364-bA.
T32 chain: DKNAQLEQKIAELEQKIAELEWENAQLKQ
The assay is described as follows: two-hybrid library CCNG1.

A further assay addresses T33, 4H3381-bA.
T33 chain: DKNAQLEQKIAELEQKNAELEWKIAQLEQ
The assay is described as follows: two-hybrid library CCNG1.

In the next assay the target is T34, 4H349-bA.
T34 chain: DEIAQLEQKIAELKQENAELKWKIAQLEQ
As to the kind of experiment: two-hybrid library CCNG1.

In another assay the target is T35, 4H56-bA.
T35 chain: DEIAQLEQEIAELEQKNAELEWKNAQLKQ
The assay is described as follows: two-hybrid library CCNG1.

For a further assay, the target named is T36, 4H730-bA.
T36 chain: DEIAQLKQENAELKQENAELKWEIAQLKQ
The assay is described as follows: two-hybrid library CCNG1.

A further assay has as its target T37, 4H796-bA.
T37 chain: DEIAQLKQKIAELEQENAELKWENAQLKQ
As to the kind of experiment: two-hybrid library CCNG1.

In the next assay the target is T38, 4H932-bA.
T38 chain: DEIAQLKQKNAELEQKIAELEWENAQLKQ
The assay is described as follows: two-hybrid library CCNG1.

In another assay the target is T39, 4H949-bA.
T39 chain: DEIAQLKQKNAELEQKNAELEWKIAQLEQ
As to the kind of experiment: two-hybrid library CCNG1.

Sequence of 4H_GCN4 (chain, as listed by the source): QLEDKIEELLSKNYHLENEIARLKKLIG

Regarding DEIAALEAENAALEAEIAALKAENAALKG [4H140-AA], the interaction score is 1.28 in the assay with 4H140-AA; -1.67 with 4H1802-AA; -1.83 in the assay with 4H2600-AA; -1.25 with 4H2721-AA; -0.883 with 4H2750-AA; -0.325 with 4H2898-AA. For the same molecule, the interaction score with 4H3020-AA is 2.23; with 4H3365-AA it was -1.08; in the assay with 4H355-AA it was -1.06; in the assay with 4H3651-AA, -1.02; with 4H3705-AA it was 1.36; in the assay with 4H3782-AA it was -0.5. Further, the interaction score in the assay with 4H465-AA was -1.51; with 4H486-AA, -0.379; with 4H535-AA it was -1.56; with 4H58-AA, 1.01; with 4H895-AA, -1.44; in the assay with 4H_APH, -2.79. In addition, the results for the interaction score with 4H_BCR, with 4H_GCN4 and with GCN2_T were -1.18, -0.95 and -1.08, respectively.

For DKIAQLEQENAELEQKNAELKWEIAQLEQ [4H2233-bA], the interaction score with 4H2233-bA was -0.789; in the assay with 4H2253-bA it was -1.28; with 4H235-bA it was -1.01; with 4H2444-bA it was -1.1; with 4H2518-bA it was 2.31; with 4H2585-bA, -1.22. Further, the interaction score in the assay with 4H264-bA was -1.45; in the assay with 4H2760-bA, -0.641; with 4H2859-bA, -0.945; with 4H2931-bA, -1.08; in the assay with 4H3041-bA it was 0.018; with 4H3297-bA, -0.632. For the same molecule, the interaction score was -0.979 in the assay with 4H3364-bA; -0.976 with 4H3381-bA; -1.43 with 4H349-bA; -1.39 with 4H56-bA; -1.24 in the assay with 4H730-bA; -1.42 in the assay with 4H796-bA. For the same molecule, the interaction score in the assay with 4H932-bA is -1.01; with 4H949-bA it was -1.
